Data reported in patent publication US20110165161A1, “ANTI-EPCAM ANTIBODIES THAT INDUCE APOPTOSIS OF CANCER CELLS AND METHODS USING SAME” (priority 2009, published 2011).

Key:
[1] = biological target: T1, human EpCAM (epithelial cell adhesion/activating molecule) (human, UniProt P16422 24-314); assay: cell-based or functional assay
T1 sequence: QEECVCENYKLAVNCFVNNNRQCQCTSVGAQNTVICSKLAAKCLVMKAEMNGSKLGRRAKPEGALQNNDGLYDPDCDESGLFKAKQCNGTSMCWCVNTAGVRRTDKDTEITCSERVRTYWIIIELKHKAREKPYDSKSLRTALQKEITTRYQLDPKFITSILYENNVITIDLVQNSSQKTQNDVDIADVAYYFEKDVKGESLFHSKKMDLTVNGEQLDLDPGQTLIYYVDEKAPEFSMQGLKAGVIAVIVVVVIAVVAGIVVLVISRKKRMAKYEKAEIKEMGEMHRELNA

EGFI-Cr1 R44G = biological target: T2, EGFI-Cr1 R44G (human, UniProt P16422 24-63); assay: direct ELISA, coated EGFI-Cr1 fusion, 0.1 µg/ml antibody
T2 construct: not shown: the constant region of human immunoglobulin gamma 1 heavy chain (Cr1) fused at the C-terminus
T2 chain: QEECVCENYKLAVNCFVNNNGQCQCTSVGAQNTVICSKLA
Description: (§1) A direct ELISA was used for testing the reactivity of anti-EpCAM antibodies toward variant EpCAM mutants. Briefly, purified EpCAM EGF-1 fusion proteins (WT, Q24A, E25K, E26D, A35T, N37R, F39A, V40E, N41A, N42E, N43A, R44G, Q45A, Q47A or T49A) and irrelevant control (CEA-Cr1) were pre-diluted to 0.5 μg/ml in coating buffer (8.4 g NaHCO₃, 3.4 g Na₂CO₃ in 1 L H₂O, pH 9.5) and aliquoted (100 μl/well) into 96-well plates. […] Plates were then washed 3 times with PBST followed by the addition of the enzyme substrate TMB (BD Biosciences, Cat. No. 555214). […] The optical densities at 450 nm wavelength were measured on an ELISA plate reader.

EGFI-Cr1 V40E = biological target: T3, EGFI-Cr1 V40E (human); assay: as above
T3 construct: not shown: The fused constant region of human immunoglobulin gamma 1 heavy chain (Cr1)
T3 chain: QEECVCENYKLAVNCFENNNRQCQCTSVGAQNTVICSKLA
Description: as §1

EGFI-Cr1 F39A = biological target: T4, EGFI-Cr1 F39A (human, UniProt P16422 24-63); assay: as above
T4 construct: not shown: The fused constant region of human immunoglobulin gamma 1 heavy chain (Cr1)
T4 chain: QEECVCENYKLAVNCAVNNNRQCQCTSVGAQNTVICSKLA
Description: as §1

EGFI-Cr1 Q24A = biological target: T5, EGFI-Cr1 Q24A (human, UniProt P16422 25-63); assay: as above
T5 construct: not shown: The fused constant region of human immunoglobulin gamma 1 heavy chain (Cr1)
T5 chain: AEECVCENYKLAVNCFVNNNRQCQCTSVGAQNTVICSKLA
Description: as §1

EGFI-Cr1 Q47A = biological target: T6, EGFI-Cr1 Q47A (human, UniProt P16422 24-63); assay: as above
T6 construct: not shown: the constant region of human immunoglobulin gamma 1 heavy chain (Cr1) fused at the C-terminus
T6 chain: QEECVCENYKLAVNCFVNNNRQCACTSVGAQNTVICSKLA
Description: as §1

EGFI-Cr1 N43A = biological target: T7, EGFI-Cr1 N43A (human, UniProt P16422 24-63); assay: as above
T7 construct: not shown: the constant region of human immunoglobulin gamma 1 heavy chain (Cr1) fused at the C-terminus
T7 chain: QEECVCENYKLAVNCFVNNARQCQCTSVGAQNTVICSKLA
Description: as §1

EGFI-Cr1 N37R = biological target: T8, EGFI-Cr1 N37R (human); assay: as above
T8 construct: not shown: The fused constant region of human immunoglobulin gamma 1 heavy chain (Cr1)
T8 chain: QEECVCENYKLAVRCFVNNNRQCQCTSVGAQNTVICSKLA
Description: as §1

EGFI-Cr1 E25K = biological target: T9, EGFI-Cr1 E25K (human, UniProt P16422 24-63); assay: as above
T9 construct: not shown: The fused constant region of human immunoglobulin gamma 1 heavy chain (Cr1)
T9 chain: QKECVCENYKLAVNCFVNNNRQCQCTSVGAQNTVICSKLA
Description: as §1

EGFI-Cr1 T49A = biological target: T10, EGFI-Cr1 T49A (human, UniProt P16422 24-63); assay: as above
T10 construct: not shown: the constant region of human immunoglobulin gamma 1 heavy chain (Cr1) fused at the C-terminus
T10 chain: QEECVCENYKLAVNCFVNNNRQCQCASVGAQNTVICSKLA
Description: as §1

EGFI-Cr1 Q45A = biological target: T11, EGFI-Cr1 Q45A (human, UniProt P16422 24-63); assay: as above
T11 construct: not shown: the constant region of human immunoglobulin gamma 1 heavy chain (Cr1) fused at the C-terminus
T11 chain: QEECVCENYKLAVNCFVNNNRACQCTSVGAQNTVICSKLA
Description: as §1

EGFI-Cr1 N42E = biological target: T12, EGFI-Cr1 N42E (human, UniProt P16422 24-63); assay: as above
T12 construct: not shown: the constant region of human immunoglobulin gamma 1 heavy chain (Cr1) fused at the C-terminus
T12 chain: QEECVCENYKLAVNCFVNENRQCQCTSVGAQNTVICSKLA
Description: as §1

EGFI-Cr1 N41A = biological target: T13, EGFI-Cr1 N41A (human, UniProt P16422 24-63); assay: as above
T13 construct: not shown: The fused constant region of human immunoglobulin gamma 1 heavy chain (Cr1)
T13 chain: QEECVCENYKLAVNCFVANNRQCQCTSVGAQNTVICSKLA
Description: as §1

EGFI-Cr1 A35T = biological target: T14, EGFI-Cr1 A35T (human, UniProt P16422 24-63); assay: as above
T14 construct: not shown: The fused constant region of human immunoglobulin gamma 1 heavy chain (Cr1)
T14 chain: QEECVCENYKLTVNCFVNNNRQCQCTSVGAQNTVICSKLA
Description: as §1

EGFI-Cr1 E26D = biological target: T15, EGFI-Cr1 E26D (human, UniProt P16422 24-63); assay: as above
T15 construct: not shown: The fused constant region of human immunoglobulin gamma 1 heavy chain (Cr1)
T15 chain: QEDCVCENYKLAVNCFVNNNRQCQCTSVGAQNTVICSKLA
Description: as §1

[2] = biological target: T16, EGFI-Cr1 wild type (first EGF-like repeat of human EpCAM fused to the constant region of human immunoglobulin … (human, UniProt P01857-1 99-330 = IgG part)); assay: as above
T16 construct: cDNA covered aa 1-63; Expressed in COS-7 cells; also called WT; EpCAM EGF-1 fusion protein WT
Description: as §1

[3] = biological target: T1, human EpCAM (epithelial cell …); assay: cell-based or functional assay; remark: listed apart in the source
[4] = biological target: T1, human EpCAM (epithelial cell …); assay: flow cytometry, CHO/EpCAM cells, 0.1 µg/ml antibody
Description: A 300× dilution of human cell hyper-immune serum (HPS 300×) was used as binding positive control for both cell lines here. After 1 hr incubation at 4° C., cells were washed twice with 200 μl FACS buffer (1×PBS containing 1% FBS), stained with 100 μl of 1 μg/ml goat-anti-mouse IgG-PE (Southern Biotech, Cat. No. 1032-09) in FACS buffer and then incubated at 4° C. for 30 min. Cells were washed thrice with FACS buffer and analyzed by flow cytometry (BD LSR, BD Life Sciences).

B1: murine monoclonal antibody 2D11 (antibody, mouse IgG1, V domains shown)
VH: QIQLVQSGPELKKPGETVKISCKASGYTFTNYGMNWVKQAPGKGLKWMGWINTNTGEATYVEEFKGRVVFSLETSASTAYLQINNLKNEDTATYFCARIGYVWYFDVWGAGTTVTVSS
VL: DIVMSQSPSSLAVSAGEKVTMSCKSSQSLFSSRTRKNYLAWYQQKPGQSPKLLIYWASTRESGVPDRFTGSGSGTDFTLTINSVQAEDLAVYYCKHSNNLFTFGSGTKLEIKR
notes: Mouse IgG1, kappa, from hybridoma; also called m322-2D11.19
% of Annexin V + PI staining (untreated background subtracted), NCI-H358, 10 µg/ml mAb, Exp1 [1]: 41%
% of Annexin V + PI staining (untreated background subtracted), NCI-H358, 10 µg/ml mAb, Exp2 [1]: 32%
% of Annexin V + PI staining (untreated background subtracted), NCI-H358, 10 µg/ml mAb, Exp3 [1]: 47%
% of Annexin V + PI staining (untreated background subtracted), NCI-H358, 10 µg/ml mAb, Exp4 [1]: 44%
% of Annexin V + PI staining (untreated background subtracted), NCI-H358, 10 µg/ml mAb, Exp5 [1]: 33%
relative binding activity (% of WT) (EGFI-Cr1 R44G): 7%
relative binding activity (% of WT) (EGFI-Cr1 V40E): 93%
relative binding activity (% of WT) (EGFI-Cr1 F39A): 97%
relative binding activity (% of WT) (EGFI-Cr1 Q24A): 99%
relative binding activity (% of WT) (EGFI-Cr1 Q47A): 96%
relative binding activity (% of WT) (EGFI-Cr1 N43A): 5%
relative binding activity (% of WT) (EGFI-Cr1 N37R): 94%
relative binding activity (% of WT) (EGFI-Cr1 E25K): 93%
relative binding activity (% of WT) (EGFI-Cr1 T49A): 95%
relative binding activity (% of WT) (EGFI-Cr1 Q45A): 89%
relative binding activity (% of WT) (EGFI-Cr1 N42E): 58%
relative binding activity (% of WT) (EGFI-Cr1 N41A): 12%
relative binding activity (% of WT) (EGFI-Cr1 A35T): 95%
relative binding activity (% of WT) (EGFI-Cr1 E26D): 97%
relative binding activity (% of WT) [2]: 100%
% Annexin V/PI-positive cells, DLD-1, 1.0 µg/ml mAb [3]: 18%
% Annexin V/PI-positive cells, DLD-1, 3.0 µg/ml mAb [3]: 41%
% Annexin V/PI-positive cells, DLD-1, 10 µg/ml mAb [3]: 48%
% Annexin V/PI-positive cells, FaDu, 1.0 µg/ml mAb [3]: 34%
% Annexin V/PI-positive cells, FaDu, 3.0 µg/ml mAb [3]: 45%
% Annexin V/PI-positive cells, FaDu, 10 µg/ml mAb [3]: 46%
% Annexin V/PI-positive cells, LNCaP, 1.0 µg/ml mAb [3]: 40%
% Annexin V/PI-positive cells, LNCaP, 3.0 µg/ml mAb [3]: 39%
% Annexin V/PI-positive cells, LNCaP, 10 µg/ml mAb [3]: 40%
% Annexin V/PI-positive cells, NCI-H520, 1.0 µg/ml mAb [3]: 41%
% Annexin V/PI-positive cells, NCI-H520, 3.0 µg/ml mAb [3]: 44%
% Annexin V/PI-positive cells, NCI-H520, 10 µg/ml mAb [3]: 52%
% Annexin V/PI-positive cells, NCI-N87, 1.0 µg/ml mAb [3]: 45%
% Annexin V/PI-positive cells, NCI-N87, 3.0 µg/ml mAb [3]: 48%
% Annexin V/PI-positive cells, NCI-N87, 10 µg/ml mAb [3]: 51%
% Annexin V/PI-positive cells, NIH:OVCAR-3, 1.0 µg/ml mAb [3]: 43%
% Annexin V/PI-positive cells, NIH:OVCAR-3, 3.0 µg/ml mAb [3]: 55%
% Annexin V/PI-positive cells, NIH:OVCAR-3, 10 µg/ml mAb [3]: 56%
% Annexin V/PI-positive cells, T-47D, 1.0 µg/ml mAb [3]: 36%
% Annexin V/PI-positive cells, T-47D, 3.0 µg/ml mAb [3]: 48%
% Annexin V/PI-positive cells, T-47D, 10 µg/ml mAb [3]: 45%
MFI [4]: 3720 MFI
